Experimental data from the RNAGym collection of RNA variant scans (doi:10.7554/elife.80360).

B1: Twister Ribozyme (parent)
chain: AACACUGCCAAUGCCGGUCCCAAGCCCGGAUAAAAGUGGAGGGGGCGG

Variants of: B1
Experiment: self-cleavage, relative activity (ratio to wild type); higher = more cleavage; co-transcriptional

Variant	self-cleavage
A35C G41A	0.611
A32C A35G	0.8
A32C A34G	0.761
A32C A34U	0.786
A35G G43U	0.13
A35G G43C	0.16
A34G U37A	0.444
A33C G47A	0.782
A33C G47U	0.865
A34U G36A	0.157
U31G G36A	0.662
U31G G36C	0.712
G36A	0.843
A32C G48U	0.893
A32C G48A	0.929
A32C G48C	1.12
A33U C46U	0.917
A33U C46G	0.921
A33U C46A	0.851
A35U A40C	0.195
A32C A33C	0.767
A32C A33U	0.865
A33C G42U	0.188
A33C G42C	0.19

Variant	self-cleavage
A33C G42A	0.177
A32U G48C	1.2
A32U G48U	0.977
U31C U37G	1
U31C U37A	0.892
U31C U37C	0.587
U31G U37G	0.734
A35U G41A	0.678
U31C A32G	0.997
U31C A32C	0.965
A35C G43U	0.456
A32U G45U	0.819
A35G G38U	0.667
A35G G38A	0.199
A33U G38U	0.815
U31C G42C	0.413
U31C G42A	0.363
U31G G47U	0.92
A35U G47U	0.893
A35U G47A	0.899
A32C G42C	0.326
A32C G42A	0.289
A33C A35G	0.707
A33C A35U	0.936

Variant	self-cleavage
A33C A35C	0.522
A34C G43A	0.13
A34C G43U	0.14
A34C G43C	0.103
U31C G43U	0.537
U31G A35G	0.682
U31G A35C	1.06
A33C G43U	0.297
A33C G43C	0.107
A32G G48U	1.1
A32G G48C	0.976
A32G G48A	0.925
A32G G47A	0.924
A32G G47U	0.893
A34G G47A	0.477
A33G G47C	0.394
A34U G48C	0.855
A34G G41A	0.141
A34G G41U	0.131
A35C G36U	0.477
A35C G36A	0.491
U31G G42U	0.447
A32G A33C	0.833
A32G A33U	0.914

Variant	self-cleavage
A33C G48A	0.867
A33C G48C	1.1
U31C G45C	0.593
U31C G45U	0.871
A34C G45U	0.167
A34C G45A	0.144
A34C G45C	0.0937
A32C G43U	0.344
A32U G42U	0.298
A34C G41C	0.111
A34C G41U	0.112
A32C G36U	0.184
A35C G38A	0.9
A35C G38U	0.881
A35G U37C	0.056
A35G U37G	0.585
A32U G36A	0.701
A32G A34G	0.679
A32G A34U	0.85
A35C U37G	0.703
A34C G47A	0.122
A34C G47U	0.107
A33G G41A	0.453
A33G G41U	0.381

Variant	self-cleavage
A32C A40G	0.134
A32C A40U	0.123
A33U G48A	0.889
A33U G48C	1.08
A35C G42U	0.415
A35C G42A	0.32
A34G G36U	0.105
A34G G36A	0.164
U31G G39A	0.623
U31G G39C	0.144
A34U G38U	0.506
U31G G45A	0.99
A32G G39C	0.155
A32G G39U	0.158
A32G G39A	0.48
A33U G43U	0.421
A34C G48U	0.21
A34C G48C	0.2
U31G G38A	0.937
U31G G38U	0.778
A35C G44C	0.943
A34G G42C	0.185
A34G G42A	0.133
A33C G45C	0.531

Variant	self-cleavage
A33C G45A	0.795
A33C G45U	0.71
U31C G48C	1.2
U31C G48A	0.901
A35C G45U	0.855
A35C G45A	0.807
A35C A40C	0.154
U31G A40C	0.224
U31G A40G	0.0918
A33G C46G	0.855
A35G G45C	0.373
U31G C46A	1.1
A35U G45A	1.02
A35G C46A	0.747
U31C G38U	0.904
U31C G38A	0.81
A33G G45C	0.545
A32C G38A	1.03
A32C G38C	0.89
A32G G45C	0.559
A34C G39U	0.11
A32C G41U	0.603
A32C G41C	0.326
A32C G41A	0.556

Variant	self-cleavage
A35G G44U	0.831
A35G G41A	0.246
U31G G41U	0.763
U31G G41C	0.278
A32G G43U	0.439
A32G G43A	0.284
A33G G38C	0.878
A33G G38A	0.709
U31C A35U	1.06
A32G G36U	0.244
A32G G36C	0.403
A34U A35U	0.841
A34U A35C	0.892
A32C G45A	0.95
A32C G45U	0.758
A32C G45C	0.546
U31G A33G	1.02
A33G G43U	0.238
A32U A34G	0.869
A32U A34U	0.89
A34C A40G	0.145
A33C A34U	0.969
A35G G36A	0.718
